For 49 molecules, peptide exchange yield results are on record in US20170165337A1 (IMMATICS BIOTECHNOLOGIES, published 2017).

For this assay, the target named is T1, HLA-A*02:01 (human).
T1 construct: MHC class I monomer of the UV-ligand exchange assay; also called peptide-receptive MHC molecules; MHC class I
As to the kind of experiment: UV peptide-exchange ELISA. The method, boiled down: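 Peptide-MHC complexes formed by UV-mediated exchange of a UV-cleavable peptide for the test peptide; exchange yield quantified by β2m ELISA. Diluted 100-fold, captured on streptavidin-coated plates 1 h at 37 °C, detected with HRP anti-β2m and TMB at 450 nm against refolded HLA-A*02:01 monomer standards (15-500 ng/ml).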

B1: SLFGPLPGPGPALV (peptide)
peptide: SLFGPLPGPGPALV
Turning to B1, the peptide exchange yield fell in the range of 50 to 75%.

B2: FVLDHEDGLNL (peptide)
peptide: FVLDHEDGLNL
Turning to B2, the peptide exchange yield fell in the range of 50 to 75%.

B3: YIQQGIFSV (peptide)
peptide: YIQQGIFSV
B3 had a peptide exchange yield of 50 to 75%.

B4: FLLSINDFL (peptide)
peptide: FLLSINDFL
On to B4, for which the peptide exchange yield lay within 50 to 75%.

B5: FLSPQQPPLL (peptide)
peptide: FLSPQQPPLL
For the molecule B5, the peptide exchange yield lay in the range of 50 to 75%.

B6: FMEPTLLML (peptide)
peptide: FMEPTLLML
In the case of B6, the peptide exchange yield lay within 50 to 75%.

B7: VVDGTCVAV (peptide)
peptide: VVDGTCVAV
In turn, B7 displayed a peptide exchange yield of 50 to 75%.

B8: FLVEAPHDWDL (peptide)
peptide: FLVEAPHDWDL
B8 yielded a peptide exchange yield of no less than 75%.

B9: YMIGSEVGNYL (peptide)
peptide: YMIGSEVGNYL
On to B9, for which the peptide exchange yield was no less than 75%.

B10: VLYNQRVEEI (peptide)
peptide: VLYNQRVEEI
Take B10: the peptide exchange yield fell in the range of 50 to 75%.

B11: YLLREWVNL (peptide)
peptide: YLLREWVNL
On to B11, for which the peptide exchange yield was no less than 75%.

B12: FLDPSLDPLL (peptide)
peptide: FLDPSLDPLL
In turn, B12 displayed a peptide exchange yield of 50 to 75%.

B13: SLADDSVLERL (peptide)
peptide: SLADDSVLERL
Molecule B13 came in with a peptide exchange yield of 50 to 75%.

B14: FVFEAPYTL (peptide)
peptide: FVFEAPYTL
Molecule B14 displayed a peptide exchange yield of 50 to 75%.

B15: YILGKFFAL (peptide)
peptide: YILGKFFAL
On to B15, for which the peptide exchange yield lay within 50 to 75%.

B16: NLWSLVAKV (peptide)
peptide: NLWSLVAKV
In turn, B16 yielded a peptide exchange yield of 50 to 75%.

B17: VLSVITEEL (peptide)
peptide: VLSVITEEL
The molecule B17 showed a peptide exchange yield of 50 to 75%.

B18: FLEEGGVVTV (peptide)
peptide: FLEEGGVVTV
Consider B18, for which the peptide exchange yield was in the range of 50 to 75%.

B19: FLPELPADLEA (peptide)
peptide: FLPELPADLEA
B19 gave a peptide exchange yield of 50 to 75%.

B20: FIMEGGAMV (peptide)
peptide: FIMEGGAMV
B20 gave a peptide exchange yield of 50 to 75%.

B21: FVYFIVREV (peptide)
peptide: FVYFIVREV
Take B21: the peptide exchange yield was in the range of 50 to 75%.

B22: SIFASPESV (peptide)
peptide: SIFASPESV
For the molecule B22, the peptide exchange yield is 50 to 75%.

B23: FLWQHVELVL (peptide)
peptide: FLWQHVELVL
B23 had a peptide exchange yield of 50 to 75%.

B24: TLLADQGEIRV (peptide)
peptide: TLLADQGEIRV
In turn, B24 yielded a peptide exchange yield of 20 to 50%.

B25: FLFEPVVKAFL (peptide)
peptide: FLFEPVVKAFL
For the molecule B25, the peptide exchange yield is 50 to 75%.

B26: GLSEISLRL (peptide)
peptide: GLSEISLRL
The molecule B26 registered a peptide exchange yield of no less than 75%.

B27: YLLEENKIKL (peptide)
peptide: YLLEENKIKL
The molecule B27 came in with a peptide exchange yield of 50 to 75%.

B28: SLAHVAGCEL (peptide)
peptide: SLAHVAGCEL
Turning to B28, the peptide exchange yield was 50 to 75%.

B29: YTIPLAIKL (peptide)
peptide: YTIPLAIKL
With B29, the peptide exchange yield is 50 to 75%.

B30: FVFGDENGTVSL (peptide)
peptide: FVFGDENGTVSL
Turning to B30, the peptide exchange yield was in the range of 50 to 75%.

B31: ALIFKIASA (peptide)
peptide: ALIFKIASA
Molecule B31 came in with a peptide exchange yield of 50 to 75%.

B32: ALDTLEDDMTI (peptide)
peptide: ALDTLEDDMTI
B32 came in with a peptide exchange yield of 50 to 75%.

B33: FLDALLTDV (peptide)
peptide: FLDALLTDV
For the molecule B33, the peptide exchange yield was 50 to 75%.

B34: YLLPLLQRL (peptide)
peptide: YLLPLLQRL
As for B34, the peptide exchange yield was no less than 75%.

B35: FLYPFPLALF (peptide)
peptide: FLYPFPLALF
As for B35, the peptide exchange yield fell in the range of 50 to 75%.

B36: FLDEDDMSL (peptide)
peptide: FLDEDDMSL
The molecule B36 returned a peptide exchange yield of 20 to 50%.

B37: VLWFKPVEL (peptide)
peptide: VLWFKPVEL
B37 came in with a peptide exchange yield of 50 to 75%.

B38: FLTDLFAQL (peptide)
peptide: FLTDLFAQL
For the molecule B38, the peptide exchange yield was no less than 75%.

B39: GIIDGSPRL (peptide)
peptide: GIIDGSPRL
B39 registered a peptide exchange yield of 50 to 75%.

B40: YLDRKLLTL (peptide)
peptide: YLDRKLLTL
On to B40, for which the peptide exchange yield was in the range of 50 to 75%.

B41: RLLDLENSLLGL (peptide)
peptide: RLLDLENSLLGL
For B41, the peptide exchange yield is 50 to 75%.

B42: YLAELVTPIL (peptide)
peptide: YLAELVTPIL
On to B42, for which the peptide exchange yield fell in the range of 50 to 75%.

B43: FIMEGGAMVL (peptide)
peptide: FIMEGGAMVL
Turning to B43, the peptide exchange yield is no less than 75%.

B44: VIAELPPKVSV (peptide)
peptide: VIAELPPKVSV
For the molecule B44, the peptide exchange yield was in the range of 50 to 75%.

B45: FLSDQPEPYL (peptide)
peptide: FLSDQPEPYL
In turn, B45 had a peptide exchange yield of 20 to 50%.

B46: FLVETGFLHV (peptide)
peptide: FLVETGFLHV
On to B46, for which the peptide exchange yield is no less than 75%.

B47: YIIDSAQAV (peptide)
peptide: YIIDSAQAV
B47 displayed a peptide exchange yield of 50 to 75%.

B48: FLLGPEALSFA (peptide)
peptide: FLLGPEALSFA
The molecule B48 returned a peptide exchange yield of no less than 75%.

B49: KLLESVASA (peptide)
peptide: KLLESVASA
Molecule B49 displayed a peptide exchange yield of 50 to 75%.
